Assay [1] has as its target GST. Kind of assay: cross-linking; BS3 (0.25-5 mM), 30 min at room temperature; TOLLIP and TOM1 preincubated for 30 min before BS3; SDS-PAGE.
In assay [2] the target is GST. Kind of assay: cross-linking; glutaraldehyde dilution series (0.01-1%), 5 min at 37°C; SDS-PAGE.
The target in another assay is T1, TOLLIP (Homo sapiens, UniProt Q9H0E2).
T1 construct: human TOLLIP cDNA in pGEX6P1, expressed in E. coli Rosetta; GST-TOLLIP in the lipid overlay, TOLLIP in liposome co-sedimentation
Kind of assay: lipid-protein overlay; liposome co-sedimentation. The class given is binding. Particulars: without TOM1; overlay: PtdIns3P on PVDF, 60 nM GST-TOLLIP, pH 8.0, 4 C; sedimentation: 2.5 uM TOLLIP, DOPC/DOPE liposomes with 3% PtdIns3P.

The target in assay [3] is T2, TOM1 G307D, MYC-BirA fusion (BioID bait) (UniProt O60784 1-492, G307D).
T2 construct: also called TOM1 G307D variant; source: inducible Flp-In T-REx 293 cell line, induced with doxycycline and biotin, in cells
Briefly: proximity labelling; BioID with mass spectrometry; Flp-In T-REx 293 cells induced with 2 µg/ml doxycycline and 50 µM biotin for 24 h; Strep-Tactin sepharose; three biological replicates. To be noted: partners not purified.

On to GST (natural protein), for which the stoichiometry N in the assay with GST [1] and with GST [2] was 2 in each case.

Take `CCCCCCCCCCCCCCCC(=O)OC[C@H](COP(=O)(O)O[C@@H]1[C@H](O)[C@H](OP(=O)(O)O)[C@@H](O)[C@H](O)[C@H]1O)OC(=O)CCCCCCCCCCCCCCC` [dipalmitoyl PtdIns3P]: the “lipid-protein overlay; liposome co-sedimentation” value at TOLLIP is reported as “As expected, TOM1 WT significantly reduced TOLLIP binding to PtdIns3P (Fig. 2B)”.

B1: myosin VI (natural protein, human (endogenous in Flp-In T-REx 293), UniProt Q9UM54 1-1294, looked up)
chain: MEDGKPVWAPHPTDGFQMGNIVDIGPDSLTIEPLNQKGKTFLALINQVFPAEEDSKKDVEDNCSLMYLNEATLLHNIKVRYSKDRIYTYVANILIAVNPYFDIPKIYSSEAIKSYQGKSLGTRPPHVFAIADKAFRDMKVLKMSQSIIVSGESGAGKTENTKFVLRYLTESYGTGQDIDDRIVEANPLLEAFGNAKTVRNNNSSRFGKFVEIHFNEKSSVVGGFVSHYLLEKSRICVQGKEERNYHIFYRLCAGASEDIREKLHLSSPDNFRYLNRGCTRYFANKETDKQILQNRKSPEYLKAGSMKDPLLDDHGDFIRMCTAMKKIGLDDEEKLDLFRVVAGVLHLGNIDFEEAGSTSGGCNLKNKSAQSLEYCAELLGLDQDDLRVSLTTRVMLTTAGGTKGTVIKVPLKVEQANNARDALAKTVYSHLFDHVVNRVNQCFPFETSSYFIGVLDIAGFEYFEHNSFEQFCINYCNEKLQQFFNERILKEEQELYQKEGLGVNEVHYVDNQDCIDLIEAKLVGILDILDEENRLPQPSDQHFTSAVHQKHKDHFRLTIPRKSKLAVHRNIRDDEGFIIRHFAGAVCYETTQFVEKNNDALHMSLESLICESRDKFIRELFESSTNNNKDTKQKAGKLSFISVGNKFKTQLNLLLDKLRSTGASFIRCIKPNLKMTSHHFEGAQILSQLQCSGMVSVLDLMQGGYPSRASFHELYNMYKKYMPDKLARLDPRLFCKALFKALGLNENDYKFGLTKVFFRPGKFAEFDQIMKSDPDHLAELVKRVNHWLTCSRWKKVQWCSLSVIKLKNKIKYRAEACIKMQKTIRMWLCKRRHKPRIDGLVKVGTLKKRLDKFNEVVSVLKDGKPEMNKQIKNLEISIDTLMAKIKSTMMTQEQIQKEYDALVKSSEELLSALQKKKQQEEEAERLRRIQEEMEKERKRREEDEKRRRKEEEERRMKLEMEAKRKQEEEERKKREDDEKRIQAEVEAQLARQKEEESQQQAVLEQERRDRELALRIAQSEAELISDEAQADLALRRSLDSYPVSKNDGTRPKMTPEQMAKEMSEFLSRGPAVLATKAAAGTKKYDLSKWKYAELRDTINTSCDIELLAACREEFHRRLKVYHAWKSKNKKRNTETEQRAPKSVTDYDFAPFLNNSPQQNPAAQIPARQREIEMNRQQRFFRIPFIRPADQYKDPQSKKKGWWYAHFDGPWIARQMELHPDKPPILLVAGKDDMEMCELNLEETGLTRKRGAEILPRQFEEIWERCGGIQYLQNAIESRQARPTYATAMLQSLLK
notes: myosin VI, endogenous protein found by proximity labeling mass spectrometry; source: endogenous, Flp-In T-REx 293 cells
As for B1, the “interaction relative to that of TOM1 WT with myosin VI” value in assay [3] came to 69%.

In general, stoichiometry N refers to the number of molecules, sites or subunits per partner or assembly.

The record behind these values is PMC12519566, “A TOM1 variant impairs interaction with TOLLIP, autophagosome-lysosome fusion and regulation of innate immunity” (Disease Models & Mechanisms, 2025).
